Assay results taken from the Immune Epitope Database (IEDB).

Experiments:
HLA-A*30:02 = assay: IEDB peptide-MHC binding, purified MHC/competitive/radioactivity; filed as Kd, often an IC50 or EC50 that approximates it; ≥ and ≤ were set here for values at or beyond the usual limits of such assays
HLA-A*30:01 = assay: as above
HLA-A*23:01 = assay: as above; settings: source organism: Dengue virus 2 Jamaica/1409/1983
HLA-A*02:02 = assay: as above
HLA-A*02:03 = assay: as above
HLA-A*02:06 = assay: as above
HLA-A*01:01 = assay: as above
HLA-A*69:01 = assay: IEDB peptide-MHC binding, purified MHC/direct/fluorescence; filed as Kd, often an IC50 or EC50 that approximates it; ≥ and ≤ were set here for values at or beyond the usual limits of such assays
HLA-A*26:01 = assay: IEDB peptide-MHC binding, purified MHC/competitive/radioactivity; filed as Kd, often an IC50 or EC50 that approximates it; ≥ and ≤ were set here for values at or beyond the usual limits of such assays
HLA-A*03:01 = assay: IEDB peptide-MHC binding, purified MHC/direct/fluorescence; filed as Kd, often an IC50 or EC50 that approximates it; ≥ and ≤ were set here for values at or beyond the usual limits of such assays; settings: source organism: Mycobacterium tuberculosis
[1] = source organism: Dengue virus 1 Brazil/97-11/1997
[2] = source organism: Dengue virus 2 Jamaica/1409/1983
[3] = source organism: Vaccinia virus WR
[4] = source organism: SARS coronavirus Tor2
[5] = source organism: Dengue virus 4 Philippines/H241/1956
[6] = source organism: Mammarenavirus machupoense

Sequence	Kd (HLA-A*02:02; [3]) [nM]	Kd (HLA-A*02:03; [3]) [nM]	Kd (HLA-A*02:06; [3]) [nM]	also measured
SKIPGGNMY	–	–	–	Kd (HLA-A*30:02; [1]): 2450 nM
KVSCTILAA	–	–	–	Kd (HLA-A*30:01; [2]): 67.7 nM
GYISTRVEM	–	–	–	Kd (HLA-A*23:01): 1140 nM
QGKRTLTPQP	–	–	–	Kd (HLA-A*30:01; source organism: Dengue virus 3 Martinique/1243/1999): 1270 nM
PVDLVKSSFV	6610	9640	≥ 26600	–
ILATLNTLIT	6.95	12.3	629	–
FTDENKWKS	–	–	–	Kd (HLA-A*01:01; [2]): 5260 nM
VLCPYMPKV	–	–	–	Kd (HLA-A*69:01; source organism: West Nile virus): 1610 nM
KVKNHIPNI	–	–	–	Kd (HLA-A*30:01; [3]): 0.684 nM
EKTQAIDGEF	–	–	–	Kd (HLA-A*26:01; source organism: Dengue virus 4 Dominica/814669/1981): ≥ 69700 nM
TLGVYDYLV	–	–	–	Kd (HLA-A*02:02; [4]): 0.245 nM; Kd (HLA-A*02:03; [4]): 936 nM; Kd (HLA-A*02:06; [4]): 74.8 nM
KVRSNAAIG	–	–	–	Kd (HLA-A*30:01; [1]): 13.6 nM
SITLATGPLT	–	–	–	Kd (HLA-A*30:01; [1]): 3930 nM
GAKIIHRYA	–	–	–	Kd (HLA-A*30:01; [3]): 118 nM
ITFLRPVLKA	3160	718	18000	–
VADLSARNKL	1170	2160	≥ 35800	–
TSETFSMGL	–	–	–	Kd (HLA-A*01:01; [5]): 7690 nM
YTLIYRQLT	6410	9420	17600	–
EQRRSTIFDI	≥ 23000	11400	≥ 25600	–

Sequence	Kd (HLA-A*02:02; [3]) [nM]	Kd (HLA-A*02:03; [3]) [nM]	Kd (HLA-A*02:06; [3]) [nM]	also measured
EISSNDNAKI	11200	194	162	–
NLLLLFVTI	–	–	–	Kd (HLA-A*02:02; [4]): 436 nM; Kd (HLA-A*02:03; [4]): 1600 nM; Kd (HLA-A*02:06; [4]): 456 nM
TSRNNHLPA	–	–	–	Kd (HLA-A*30:01; source organism: Vaccinia virus Copenhagen): 15.2 nM
FTDPASIAA	–	–	–	Kd (HLA-A*01:01; [2]): 7.26 nM; Kd (HLA-A*02:06; [2]): 32.6 nM
GIAIFNNRNL	5.12	2040	4720	–
DVNSVQFSI	10400	16200	16900	–
ALYKGFQFI	–	–	–	Kd (HLA-A*02:02; [4]): 0.532 nM; Kd (HLA-A*02:03; [4]): 3.32 nM; Kd (HLA-A*02:06; [4]): 2.03 nM
HVFQEYRLK	–	–	–	Kd (HLA-A*30:01; [3]): 26.6 nM
IAMWLLLLSI	–	–	–	Kd (HLA-A*02:02; [4]): 85.8 nM; Kd (HLA-A*02:03; [4]): 1900 nM; Kd (HLA-A*02:06; [4]): 498 nM
MANIFRGSY	–	–	–	Kd (HLA-A*30:02; [2]): 113 nM
PTSEIQLTDY	–	–	–	Kd (HLA-A*01:01; [1]): 255 nM; Kd (HLA-A*26:01; [1]): ≥ 69700 nM
GLLDSIKMI	80	14.1	43.4	–
FLAFLLFLV	–	–	–	Kd (HLA-A*02:02; [4]): 1.81 nM; Kd (HLA-A*02:03; [4]): 58.3 nM; Kd (HLA-A*02:06; [4]): 9 nM
EISNMLNIM	–	–	–	Kd (HLA-A*26:01; source organism: Dengue virus 1 Singapore/S275/1990): 476 nM
STFNMWREI	5820	713	94.6	–
EVEDYGFGM	–	–	–	Kd (HLA-A*26:01; [5]): 3900 nM
GVMYAFTTPL	34.2	44.4	44.8	–
SMYGKAFNHA	6.58	0.929	4.03	–
RAKRKPAMST	977	1380	1550	–

Sequence	Kd (HLA-A*02:02; [3]) [nM]	Kd (HLA-A*02:03; [3]) [nM]	Kd (HLA-A*02:06; [3]) [nM]	also measured
KLFKRERDA	2390	985	14900	–
FLLPLTSLVI	11.5	5.07	2.5	–
YLAENTFVV	–	–	–	Kd (HLA-A*69:01; source organism: Mycobacterium tuberculosis): 15.7 nM
INRFTMKHK	–	–	–	Kd (HLA-A*30:01; [2]): 7950 nM
GGMLVRNPLS	–	–	–	Kd (HLA-A*30:01; [1]): 4270 nM
PAMSTYSDI	18300	≥ 20600	≥ 77100	–
ITTATRCPTQ	–	–	–	Kd (HLA-A*30:01; [5]): 9440 nM
IVCIVAAVII	1460	1590	3560	–
SLVKESMASL	994	7.78	1430	–
HQYPANLFY	–	–	–	Kd (HLA-A*30:01; [3]): 50.8 nM
NIGCAVNTPV	126	30.3	176	–
KFKLTLPNK	–	–	–	Kd (HLA-A*30:01; [3]): 12.1 nM
WIKDIMTST	193	11.5	136	–
KSYFTNAAL	–	–	–	Kd (HLA-A*02:02; [6]): 593 nM; Kd (HLA-A*02:03; [6]): 7180 nM; Kd (HLA-A*02:06; [6]): 12000 nM
VLIDAGLPK	–	–	–	Kd (HLA-A*03:01): 319 nM
IVQLPKRGV	12000	8750	3120	–
FTFGDTALYV	24.3	48.1	3.51	–
WIKNLETYT	18300	637	8210	–
